Experimental data: patent US20140193915, “COMPOSITIONS AND METHODS FOR CUSTOM SITE-SPECIFIC DNA RECOMBINASES” (Monsanto Technology, LLC, published 2014)

Experiments:
Experiment in all cases: cell_activity; E. coli
Conditions in all cases: tags: 6-His
pN-TALER IV-1-EE3 = target: T1, pN-TALER IV-1-EE3 (synthetic)
T1 chain: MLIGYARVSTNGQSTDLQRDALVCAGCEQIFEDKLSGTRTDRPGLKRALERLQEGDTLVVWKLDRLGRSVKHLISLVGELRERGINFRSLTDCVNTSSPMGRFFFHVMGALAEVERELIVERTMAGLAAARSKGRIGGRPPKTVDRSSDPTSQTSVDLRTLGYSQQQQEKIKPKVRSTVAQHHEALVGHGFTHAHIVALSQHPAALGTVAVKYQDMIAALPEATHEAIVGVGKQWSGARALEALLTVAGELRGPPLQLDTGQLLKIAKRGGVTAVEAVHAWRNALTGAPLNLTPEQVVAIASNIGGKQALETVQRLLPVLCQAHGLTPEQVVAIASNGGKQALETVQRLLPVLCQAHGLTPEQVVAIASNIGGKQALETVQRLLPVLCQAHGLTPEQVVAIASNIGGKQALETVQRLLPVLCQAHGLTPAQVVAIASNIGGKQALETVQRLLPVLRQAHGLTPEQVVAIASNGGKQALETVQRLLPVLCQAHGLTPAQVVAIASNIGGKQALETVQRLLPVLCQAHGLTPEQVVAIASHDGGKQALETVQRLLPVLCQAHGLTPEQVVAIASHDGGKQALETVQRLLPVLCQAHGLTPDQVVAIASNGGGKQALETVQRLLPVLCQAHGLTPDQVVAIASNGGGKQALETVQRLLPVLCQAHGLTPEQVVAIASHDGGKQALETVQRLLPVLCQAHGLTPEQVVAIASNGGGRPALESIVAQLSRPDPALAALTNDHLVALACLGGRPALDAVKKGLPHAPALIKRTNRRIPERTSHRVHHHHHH

sN-TALER IIa-1 = target: T2, sN-TALER IIa-1 (synthetic)
T2 chain: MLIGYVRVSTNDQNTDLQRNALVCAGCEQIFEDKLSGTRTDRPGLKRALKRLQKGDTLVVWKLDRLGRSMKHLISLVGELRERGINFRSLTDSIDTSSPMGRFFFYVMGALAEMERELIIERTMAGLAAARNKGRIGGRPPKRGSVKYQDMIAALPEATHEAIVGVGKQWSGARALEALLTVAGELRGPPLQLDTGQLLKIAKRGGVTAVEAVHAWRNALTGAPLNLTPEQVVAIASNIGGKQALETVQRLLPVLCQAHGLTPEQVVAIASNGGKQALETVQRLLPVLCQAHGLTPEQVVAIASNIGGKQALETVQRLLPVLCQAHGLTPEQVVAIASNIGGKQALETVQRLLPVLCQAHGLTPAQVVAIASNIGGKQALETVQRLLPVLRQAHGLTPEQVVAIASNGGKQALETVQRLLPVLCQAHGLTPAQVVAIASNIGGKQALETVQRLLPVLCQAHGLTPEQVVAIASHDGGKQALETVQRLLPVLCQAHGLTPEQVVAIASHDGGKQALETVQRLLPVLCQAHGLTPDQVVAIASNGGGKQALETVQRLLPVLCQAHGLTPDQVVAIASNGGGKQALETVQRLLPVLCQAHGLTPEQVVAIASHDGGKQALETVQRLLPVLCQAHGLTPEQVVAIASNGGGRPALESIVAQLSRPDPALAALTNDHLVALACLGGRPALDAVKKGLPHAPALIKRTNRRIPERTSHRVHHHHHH
Summary of the method: (§1)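 DH5alpha cells co-transformed (heat shock or electroporation) with N-TALER expression and reporter plasmids at ~1:1 mass ratio; reporter alone as control. Plated on chloramphenicol/kanamycin/X-gal, grown 37° C. for 18 to 36 hours; recombination scored by colony colour.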

sN-TALER III-1 = target: T3, sN-TALER III-1 (synthetic)
T3 chain: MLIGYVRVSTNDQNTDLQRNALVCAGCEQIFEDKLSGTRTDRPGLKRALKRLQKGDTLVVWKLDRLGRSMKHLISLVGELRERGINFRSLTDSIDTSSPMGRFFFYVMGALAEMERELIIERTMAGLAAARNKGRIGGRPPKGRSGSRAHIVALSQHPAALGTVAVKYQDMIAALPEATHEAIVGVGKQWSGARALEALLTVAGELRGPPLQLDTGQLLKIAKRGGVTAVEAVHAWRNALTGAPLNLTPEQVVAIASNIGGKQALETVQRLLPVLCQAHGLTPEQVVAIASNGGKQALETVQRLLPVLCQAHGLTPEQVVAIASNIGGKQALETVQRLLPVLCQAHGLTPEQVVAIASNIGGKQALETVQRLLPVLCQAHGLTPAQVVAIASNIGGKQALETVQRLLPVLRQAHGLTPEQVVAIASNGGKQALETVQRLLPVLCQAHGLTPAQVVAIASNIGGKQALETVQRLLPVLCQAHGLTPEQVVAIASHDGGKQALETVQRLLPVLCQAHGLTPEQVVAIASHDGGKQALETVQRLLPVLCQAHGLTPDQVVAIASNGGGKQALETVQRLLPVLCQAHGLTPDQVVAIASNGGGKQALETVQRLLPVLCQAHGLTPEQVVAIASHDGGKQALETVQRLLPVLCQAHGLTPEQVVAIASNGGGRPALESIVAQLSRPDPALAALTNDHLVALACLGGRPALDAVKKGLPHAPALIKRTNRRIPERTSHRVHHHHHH
Summary of the method: as §1

B1: Gin18TALE+0 (dsDNA)
DNA 1: AGAAGGTATTTATACCAAAACCATGGTTTACATATAAATACCTTCT
DNA 2: AGAAGGTATTTATATGTAAACCATGGTTTTGGTATAAATACCTTCT
Q: For B1, which activity (pN-TALER IV-1-EE3) is on record?
A: The activity was 3 score.

Q: And the activity (sN-TALER IIa-1)?
A: The activity was 4 score.

Q: And the activity (sN-TALER III-1)?
A: Its activity is 4.5 score.
